Test [1] addresses T1, Strep-Tag II-GM130, purified (human, UniProt Q08379 1-1002).
T1 construct: human GM130 isoform 1; also called Strep II-GM130; purified GM130; source: purified
T1 sequence (looked up): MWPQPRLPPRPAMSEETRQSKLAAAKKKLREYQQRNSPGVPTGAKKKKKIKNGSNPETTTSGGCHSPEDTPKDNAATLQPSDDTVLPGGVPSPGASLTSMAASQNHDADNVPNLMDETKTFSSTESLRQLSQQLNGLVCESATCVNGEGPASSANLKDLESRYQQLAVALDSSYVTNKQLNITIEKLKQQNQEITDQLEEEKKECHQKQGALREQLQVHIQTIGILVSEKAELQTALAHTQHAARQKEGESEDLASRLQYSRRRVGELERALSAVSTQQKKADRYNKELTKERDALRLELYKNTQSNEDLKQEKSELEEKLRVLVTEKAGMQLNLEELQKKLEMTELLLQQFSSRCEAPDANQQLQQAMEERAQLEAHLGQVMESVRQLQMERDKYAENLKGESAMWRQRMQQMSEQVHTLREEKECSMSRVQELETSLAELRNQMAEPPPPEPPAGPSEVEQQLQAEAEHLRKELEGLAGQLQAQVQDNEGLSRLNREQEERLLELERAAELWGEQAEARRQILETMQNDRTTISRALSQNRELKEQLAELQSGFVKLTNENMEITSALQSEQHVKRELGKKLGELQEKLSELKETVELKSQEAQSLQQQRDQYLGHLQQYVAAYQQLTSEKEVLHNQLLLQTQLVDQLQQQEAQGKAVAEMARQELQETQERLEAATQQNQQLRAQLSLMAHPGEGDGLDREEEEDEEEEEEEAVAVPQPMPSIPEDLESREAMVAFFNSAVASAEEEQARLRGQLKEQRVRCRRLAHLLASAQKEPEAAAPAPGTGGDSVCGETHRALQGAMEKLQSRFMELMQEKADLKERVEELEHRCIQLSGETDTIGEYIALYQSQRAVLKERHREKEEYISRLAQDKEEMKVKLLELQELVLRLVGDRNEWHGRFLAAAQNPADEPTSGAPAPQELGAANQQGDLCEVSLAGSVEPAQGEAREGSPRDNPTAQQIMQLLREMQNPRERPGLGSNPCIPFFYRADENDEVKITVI
The experiment in a line: pull-down; purified Strep II-GM130 incubated with recombinant WAC 320–647 before binding to recombinant GST or GST-GABARAP beads, immunoblot. The conditions noted are these: both partners purified.

The target in test [2] is T1, Strep-Tag II-GM130, purified. The experiment in a line: pull-down; GST-WAC FL or ΔCC incubated with purified Strep-Tag II-GM130; GST-WAC monitored by Ponceau S. The settings on record: both partners purified.

B1: recombinant WAC 320–647 (domain or fragment, human, UniProt Q9BTA9 320-647, looked up)
chain: TTPSTSSASGLNPTSAPPTSASAVPVSPVPQSPIPPLLQDPNLLRQLLPALQATLQLNNSNVDISKINEVLTAAVTQASLQSIIHKFLTAGPSAFNITSLISQAAQLSTQAQPSNQSPMSLTSDASSPRSYVSPRISTPQTNTVPIKPLISTPPVSSQPKVSTPVVKQGPVSQSATQQPVTADKQQGHEPVSPRSLQRSSSQRSPSPGPNHTSNSSNASNATVVPQNSSARSTCSLTPALAAHFSENLIKHVQGWPADHAEKQASRLREEAHNMGTIHMSEICTELKNLRSLVRVCEIQATLREQRILFLRQQIKELEKLKNQNSFMV
notes: human WAC isoform 1, residues 320-647 (the C-terminal half, CT); source: recombinant
Take B1: in test [1], the binding result is reported as “binds”.

B2: GST-WAC FL (natural protein, human, UniProt Q9BTA9 1-647, looked up)
chain: MVMYARKQQRLSDGCHDRRGDSQPYQALKYSSKSHPSSGDHRHEKMRDAGDPSPPNKMLRRSDSPENKYSDSTGHSKAKNVHTHRVRERDGGTSYSPQENSHNHSALHSSNSHSSNPSNNPSKTSDAPYDSADDWSEHISSSGKKYYYNCRTEVSQWEKPKEWLEREQRQKEANKMAVNSFPKDRDYRREVMQATATSGFASGMEDKHSSDASSLLPQNILSQTSRHNDRDYRLPRAETHSSSTPVQHPIKPVVHPTATPSTVPSSPFTLQSDHQPKKSFDANGASTLSKLPTPTSSVPAQKTERKESTSGDKPVSHSCTTPSTSSASGLNPTSAPPTSASAVPVSPVPQSPIPPLLQDPNLLRQLLPALQATLQLNNSNVDISKINEVLTAAVTQASLQSIIHKFLTAGPSAFNITSLISQAAQLSTQAQPSNQSPMSLTSDASSPRSYVSPRISTPQTNTVPIKPLISTPPVSSQPKVSTPVVKQGPVSQSATQQPVTADKQQGHEPVSPRSLQRSSSQRSPSPGPNHTSNSSNASNATVVPQNSSARSTCSLTPALAAHFSENLIKHVQGWPADHAEKQASRLREEAHNMGTIHMSEICTELKNLRSLVRVCEIQATLREQRILFLRQQIKELEKLKNQNSFMV
notes: human WAC isoform 1, full length; also called recombinant GST-WAC; source: recombinant
Turning to B2, in test [2], the binding result is “binds”.

The values above are taken from paper PMC4691241, “Activation of ULK Kinase and Autophagy by GABARAP Trafficking from the Centrosome Is Regulated by WAC and GM130” (Molecular Cell, 2015).
